Data reported in US20260092267.

Test system: H3K4 histone substrate (histone H3)

## SETD7-dCas9 protein (purified from pET-SETD7-dCas9-NLS-6×His)
  in vitro H3K4 methylation activity: the SETD7-dCas9 protein was confirmed to have H3K4 methylation activity with H3K4 histone substrate through in vitro analysis
